In paper PMC11059001 (2024):

Molecular target: complement C1q (human, UniProt P02745;P02746;P02747)
Experiment: MST

complement C1q, sequence (P02745 23-245, chain 1 of 3): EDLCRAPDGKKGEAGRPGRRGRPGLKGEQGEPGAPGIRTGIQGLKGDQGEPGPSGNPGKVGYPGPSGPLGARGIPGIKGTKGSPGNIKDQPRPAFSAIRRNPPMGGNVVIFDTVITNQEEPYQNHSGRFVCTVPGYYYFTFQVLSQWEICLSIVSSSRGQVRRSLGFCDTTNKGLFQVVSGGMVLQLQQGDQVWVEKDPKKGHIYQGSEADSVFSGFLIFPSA
complement C1q, sequence (P02746 28-253, chain 2 of 3): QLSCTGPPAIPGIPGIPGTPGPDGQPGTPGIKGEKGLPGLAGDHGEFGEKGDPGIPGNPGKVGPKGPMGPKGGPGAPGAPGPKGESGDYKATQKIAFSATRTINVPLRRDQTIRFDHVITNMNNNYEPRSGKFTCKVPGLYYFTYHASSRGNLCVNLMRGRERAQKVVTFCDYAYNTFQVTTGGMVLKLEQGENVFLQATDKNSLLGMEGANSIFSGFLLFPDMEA
complement C1q, sequence (P02747 29-245, chain 3 of 3): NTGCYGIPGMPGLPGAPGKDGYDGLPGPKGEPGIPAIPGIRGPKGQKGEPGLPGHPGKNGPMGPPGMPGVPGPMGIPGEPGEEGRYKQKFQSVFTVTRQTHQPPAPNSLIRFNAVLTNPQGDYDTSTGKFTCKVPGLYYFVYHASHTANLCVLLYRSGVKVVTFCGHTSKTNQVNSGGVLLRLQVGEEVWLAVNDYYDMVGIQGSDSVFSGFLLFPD

B1: TsCRT^Δ mutant Y132A/N158A (domain or fragment)
chain: EPTIYLKETFDDGDAWKERWVQSKHKDDYGEWQLSHGKLFADENDMGLKTMQDARFYSLSRKFDKVVDNKDKPLVIVYTVKHEQDIDCGGGYIKLMLENTDLEDFNSDTPARIMFGPDICGPEKRAVHSILWHDGKAYEKRKNAIAMADIFTHAYKLIIFPNNSYEIWVNNDKEAYGRLEDDWTMTEPGSGPVPELYRYKGLGAIGFELWQVKSGTIFDNILITDDPEYAKEFIDKQLEALRPIEKVESDK
modifications: fluorescent label RED-NHS (MO-L011 Monolith Protein Labelling Kit) in the MST assays; chain labelled not stated | fluorescent label RED-NHS (MO-L011 Monolith Protein Labelling Kit) in the MST assays; chain labelled not stated | fluorescent label RED-NHS (MO-L011 Monolith Protein Labelling Kit) in the MST assays; chain labelled not stated
- Kd: 8.89 µM
